Experimental findings from the Human Domainome abundance scans (Beltran et al. 2025) are described below.

± gives the uncertainty stated by the source.

First the molecules themselves.
B1: Far upstream element-binding protein 3, residues 75 to 150; numbered along this chain, Q96I24 (parent)
chain: RTVITEEFKVPDKMVGFIIGRGGEQISRIQAESGCKIQIASESSGIPERPCVLTGTPESIEQAKRLLGQIVDRCRN

This data set covers variants of B1. Description: abundance fitness (aPCA) (normalised: wild type 0, dead -1); higher = more abundant; growth selection in yeast, the domain comes from the species named. The settings on record: Homo sapiens.
On to RTVITEEFKVPDKMVGFIIGRGGEQISRIQAESGCKIQIASESQGIPERPCVLTGTPESIEQAKRLLGQIVDRCRN [S44Q], for which the abundance fitness came to 0.006 ± 0.044. With RTVITEEFKVPDKMVGFIIGRGGEQISRIQAESGCKIQIASESKGIPERPCVLTGTPESIEQAKRLLGQIVDRCRN [S44K], the abundance fitness is -0.005 ± 0.042. Consider RTVITEEFKVPDKMVGFIIGRGGEQISRIQAESGCKIQIASESGGIPERPCVLTGTPESIEQAKRLLGQIVDRCRN [S44G], for which the abundance fitness is -0.021 ± 0.027. The same measure for RTVITEEFKVPDKMVGFIIGRGGEQISRIQAESGCKIQIASESYGIPERPCVLTGTPESIEQAKRLLGQIVDRCRN [S44Y]: -0.086 ± 0.067; for RTVITEEFKVPDKMVGFIIGRGGEQISRIQAESGCKIQIASESIGIPERPCVLTGTPESIEQAKRLLGQIVDRCRN [S44I]: -0.07 ± 0.086; for RTVITEEFKVPDKMVGFIIGRGGEQISRIQAESGCKIQIASESHGIPERPCVLTGTPESIEQAKRLLGQIVDRCRN [S44H]: -0.013 ± 0.066. The same measure for RTVITEEFKVPDKMVGFIIGRGGEQISRIQAESGCKIQIASESNGIPERPCVLTGTPESIEQAKRLLGQIVDRCRN [S44N]: -0.053 ± 0.054; for RTVITEEFKVPDKMVGFIIGRGGEQISRIQAESGCKIQIASESVGIPERPCVLTGTPESIEQAKRLLGQIVDRCRN [S44V]: -0.05 ± 0.031; for RTVITEEFKVPDKMVGFIIGRGGEQISRIQAESGCKIQIASESTGIPERPCVLTGTPESIEQAKRLLGQIVDRCRN [S44T]: -0.015 ± 0.039. The result for RTVITEEFKVPDKMVGFIIGRGGEQISRIQAESGCKIQIASESRGIPERPCVLTGTPESIEQAKRLLGQIVDRCRN [S44R] reads -0.046 ± 0.028; that for RTVITEEFKVPDKMVGFIIGRGGEQISRIQAESGCKIQIASESEGIPERPCVLTGTPESIEQAKRLLGQIVDRCRN [S44E], -0.009 ± 0.034; that for RTVITEEFKVPDKMVGFIIGRGGEQISRIQAESGCKIQIASESLGIPERPCVLTGTPESIEQAKRLLGQIVDRCRN [S44L], -0.017 ± 0.034. Regarding RTVITEEFKVPDKMVGFIIGRGGEQISRIQAESGCKIQIASESPGIPERPCVLTGTPESIEQAKRLLGQIVDRCRN [S44P], the abundance fitness was -0.058 ± 0.043. The result for RTVITEEFKVPDKMVGFIIGRGGEQISRIQAESGCKIQIASESFGIPERPCVLTGTPESIEQAKRLLGQIVDRCRN [S44F] reads -0.06 ± 0.062; that for RTVITEEFKVPDKMVGFIIGRGGEQISRIQAESGCKIQIASESSGCPERPCVLTGTPESIEQAKRLLGQIVDRCRN [I46C], 0.023 ± 0.048; that for RTVITEEFKVPDKMVGFIIGRGGEQISRIQAESGCKIQIASESSGEPERPCVLTGTPESIEQAKRLLGQIVDRCRN [I46E], 0.063 ± 0.033. The same measure for RTVITEEFKVPDKMVGFIIGRGGEQISRIQAESGCKIQIASESSGAPERPCVLTGTPESIEQAKRLLGQIVDRCRN [I46A]: 0.03 ± 0.033; for RTVITEEFKVPDKMVGFIIGRGGEQISRIQAESGCKIQIASESSGDPERPCVLTGTPESIEQAKRLLGQIVDRCRN [I46D]: -0.061 ± 0.046; for RTVITEEFKVPDKMVGFIIGRGGEQISRIQAESGCKIQIASESSGHPERPCVLTGTPESIEQAKRLLGQIVDRCRN [I46H]: 0.02 ± 0.066. The same measure for RTVITEEFKVPDKMVGFIIGRGGEQISRIQAESGCKIQIASESSGFPERPCVLTGTPESIEQAKRLLGQIVDRCRN [I46F]: -0.023 ± 0.053; for RTVITEEFKVPDKMVGFIIGRGGEQISRIQAESGCKIQIASESSGGPERPCVLTGTPESIEQAKRLLGQIVDRCRN [I46G]: 0.011 ± 0.026; for RTVITEEFKVPDKMVGFIIGRGGEQISRIQAESGCKIQIASESSIIPERPCVLTGTPESIEQAKRLLGQIVDRCRN [G45I]: -0.158 ± 0.06. RTVITEEFKVPDKMVGFIIGRGGEQISRIQAESGCKIQIASESSYIPERPCVLTGTPESIEQAKRLLGQIVDRCRN [G45Y]: the abundance fitness is -0.168 ± 0.051.

Consider RTVITEEFKVPDKMVGFIIGRGGEQISRIQAESGCKIQIASESSRIPERPCVLTGTPESIEQAKRLLGQIVDRCRN [G45R], for which the abundance fitness is -0.055 ± 0.026. The same measure for RTVITEEFKVPDKMVGFIIGRGGEQISRIQAESGCKIQIASESSHIPERPCVLTGTPESIEQAKRLLGQIVDRCRN [G45H]: -0.065 ± 0.057; for RTVITEEFKVPDKMVGFIIGRGGEQISRIQAESGCKIQIASESSNIPERPCVLTGTPESIEQAKRLLGQIVDRCRN [G45N]: -0.01 ± 0.068; for RTVITEEFKVPDKMVGFIIGRGGEQISRIQAESGCKIQIASESSPIPERPCVLTGTPESIEQAKRLLGQIVDRCRN [G45P]: -0.067 ± 0.037. The result for RTVITEEFKVPDKMVGFIIGRGGEQISRIQAESGCKIQIASESSMIPERPCVLTGTPESIEQAKRLLGQIVDRCRN [G45M] reads -0.101 ± 0.037; that for RTVITEEFKVPDKMVGFIIGRGGEQISRIQAESGCKIQIASESSEIPERPCVLTGTPESIEQAKRLLGQIVDRCRN [G45E], -0.052 ± 0.032. Regarding RTVITEEFKVPDKMVGFIIGRGGEQISRIQAESGCKIQIASESSDIPERPCVLTGTPESIEQAKRLLGQIVDRCRN [G45D], the abundance fitness was -0.011 ± 0.041. The same measure for RTVITEEFKVPDKMVGFIIGRGGEQISRIQAESGCKIQIASESSCIPERPCVLTGTPESIEQAKRLLGQIVDRCRN [G45C]: -0.094 ± 0.037; for RTVITEEFKVPDKMVGFIIGRGGEQISRIQAESGCKIQIASESSSIPERPCVLTGTPESIEQAKRLLGQIVDRCRN [G45S]: -0.051 ± 0.032; for RTVITEEFKVPDKMVGFIIGRGGEQISRIQAESGCKIQIASESSAIPERPCVLTGTPESIEQAKRLLGQIVDRCRN [G45A]: -0.041 ± 0.029.

As for RTVITEEFKVPDKMVGFIIGRGGEQISRIQAESGCKIQIASESSLIPERPCVLTGTPESIEQAKRLLGQIVDRCRN [G45L], the abundance fitness was -0.124 ± 0.029. Take RTVITEEFKVPDKMVGFIIGRGGEQISRIQAESGCKIQIASESSQIPERPCVLTGTPESIEQAKRLLGQIVDRCRN [G45Q]: the abundance fitness is -0.046 ± 0.038. The result for RTVITEEFKVPDKMVGFIIGRGGEQISRIQAESGCKIQIASESSWIPERPCVLTGTPESIEQAKRLLGQIVDRCRN [G45W] reads -0.15 ± 0.032.
